# In patent US20140242093A1, “METHODS AND COMPOSITIONS FOR MODULATING THE INNATE IMMUNE RESPONSE AND/OR MYOGENESIS IN A MAMMALIAN SUBJECT” (FRED HUTCHINSON CANCER RESEARCH CENTER, priority 2011, published 2014):
# B1: DUX4-s: short splice form of DUX4 (SEQ ID NO:112), keeps the double-homeobox domains, lacks the C-terminal activation domain (protein, listed as Homo sapiens)
# chain: MALPTPSDSTLPAEARGRGRRRRLVWTPSQSEALRACFERNPYPGIATRERLAQAIGIPEPRVQIWFQNERSRQLRQHRRESRPWPGRRGPPEGRRKRTAVTGSQTALLLRAFEKDRFPGIAAREELARETGLPESRIQIWFQNRRARHPGQGGRAPAQV
# Assays:
# Human myoblasts = experiment: Expression array of the innate immune response to lentiviral infection versus uninfected cells; assay type: cell-based
# Description: RNA was harvested from the lenti-viral infected cells and uninfected control cells at 24 hours after infection.
# [1] = system: cultured human skeletal muscle cells; details: cited from earlier work
# [2] = system: 31-bp oligonucleotides containing the putative DUX4 binding site; experiment: Electromobility shift assay (EMSA); design: species or system human; details: in vitro translated protein; TRIM48, CSF1R, THE1D oligos
# Description: EMSA was performed with ^32P-labeled 31-bp oligonucleotides from endogenous genomic sequences containing the putative DUX4 binding site as probes (sequences below; only forward shown). Radiolabeled probes were incubated with in vitro translated protein generated from pCS2-DUX4-fl or pCS2-DUX4-s^2 vectors using the TNT SP6 Coupled Wheat Germ Extract System (Promega) according to manufacturer's instructions. To obtain supershift of protein-DNA complexes, 0.1 μg of E14-3 anti-DUX4 rabbit monoclonal antibody was added to the mixtures. For competition experiments, excess unlabeled probes of either wild-type or mutant sequences were included in the binding reaction. The gels were prepared and run as previously described (Knoepfler et al., 1999).
# [3] = system: human rhabdomyosarcoma cell line RD; experiment: Luciferase reporter assay with DUX4 binding sites; assay type: cell-based
# Description: The DUX4 binding site in the ZSCAN4 pGL3-promoter construct was either reversed in orientation (as shown in FIG. 3D) or moved downstream of the reporter gene (as shown in FIG. 3E). […] Transfections and luciferase assays were done as in main methods. Data are given as the averages±SD of triplicates.
# Transient DNA transfections of RD cells were performed using SuperFect (Qiagen) according to manufacturer specifications. Briefly, 3×10^5 cells were seeded per 35 mm plate the day prior to transfection. […] Cells were lysed 24 h post-transfection in Passive Lysis Buffer (Promega). Luciferase activities were quantified using reagents from the Dual-Luciferase Reporter Assay System (Promega) following manufacturer's instructions. Light emission was measured using BioTek Synergy2 luminometer. Luciferase data are given as the averages±SD of at least triplicates.
molecule,measurement,setting,value
B1,IL1R1 expression ratio vs NoLenti (.fc),"Human myoblasts; gene IL1R1 NM_000877.2, vs uninfected, 24 hours after infection",1.61 log2 fold change
same,IL7R expression ratio vs GFP (.fc),"Human myoblasts; gene IL7R NM_002185.2, vs lenti-GFP, 24 hours after infection",0.57 log2 fold change
same,IL7R expression ratio vs NoLenti (.fc),"Human myoblasts; gene IL7R NM_002185.2, vs uninfected, 24 hours after infection",2.05 log2 fold change
same,IL8 expression ratio vs GFP (.fc),"Human myoblasts; gene IL8 NM_000584.2, vs lenti-GFP, 24 hours after infection",1.19 log2 fold change
same,IL8 expression ratio vs NoLenti (.fc),"Human myoblasts; gene IL8 NM_000584.2, vs uninfected, 24 hours after infection",4.69 log2 fold change
same,IL18BP expression ratio vs GFP (.fc),"Human myoblasts; gene IL18BP NM_173042.2, vs lenti-GFP, 24 hours after infection",1.40 log2 fold change
same,IL18BP expression ratio vs NoLenti (.fc),"Human myoblasts; gene IL18BP NM_173042.2, vs uninfected, 24 hours after infection",3.37 log2 fold change
same,IRF7 expression ratio vs GFP (.fc),"Human myoblasts; gene IRF7 NM_004029.2, vs lenti-GFP, 24 hours after infection",1.14 log2 fold change
same,IRF7 expression ratio vs NoLenti (.fc),"Human myoblasts; gene IRF7 NM_004029.2, vs uninfected, 24 hours after infection",3.99 log2 fold change
same,IRF9 expression ratio vs GFP (.fc),"Human myoblasts; gene IRF9 NM_006084.4, vs lenti-GFP, 24 hours after infection",0.29 log2 fold change
same,IRF9 expression ratio vs NoLenti (.fc),"Human myoblasts; gene IRF9 NM_006084.4, vs uninfected, 24 hours after infection",2.72 log2 fold change
same,MX1 expression ratio vs GFP (.fc),"Human myoblasts; gene MX1 NM_002462.2, vs lenti-GFP, 24 hours after infection",0.26 log2 fold change
same,MX1 expression ratio vs NoLenti (.fc),"Human myoblasts; gene MX1 NM_002462.2, vs uninfected, 24 hours after infection",7.49 log2 fold change
same,NFIL3 expression ratio vs GFP (.fc),"Human myoblasts; gene NFIL3 NM_005384.2, vs lenti-GFP, 24 hours after infection",0.32 log2 fold change
same,NFIL3 expression ratio vs NoLenti (.fc),"Human myoblasts; gene NFIL3 NM_005384.2, vs uninfected, 24 hours after infection",2.16 log2 fold change
same,NFKBIA expression ratio vs GFP (.fc),"Human myoblasts; gene NFKBIA NM_020529.1, vs lenti-GFP, 24 hours after infection",0.28 log2 fold change
same,NFKBIA expression ratio vs NoLenti (.fc),"Human myoblasts; gene NFKBIA NM_020529.1, vs uninfected, 24 hours after infection",2.46 log2 fold change
same,NFKBIZ expression ratio vs GFP (.fc),"Human myoblasts; gene NFKBIZ NM_001005474.1, vs lenti-GFP, 24 hours after infection",−0.26 log2 fold change
same,NFKBIZ expression ratio vs NoLenti (.fc),"Human myoblasts; gene NFKBIZ NM_001005474.1, vs uninfected, 24 hours after infection",1.58 log2 fold change
same,STAT1 expression ratio vs GFP (.fc),"Human myoblasts; gene STAT1 NM_007315.2, vs lenti-GFP, 24 hours after infection",0.82 log2 fold change
same,STAT1 expression ratio vs NoLenti (.fc),"Human myoblasts; gene STAT1 NM_007315.2, vs uninfected, 24 hours after infection",4.79 log2 fold change
same,STAT2 expression ratio vs GFP (.fc),"Human myoblasts; gene STAT2 NM_005419.2, vs lenti-GFP, 24 hours after infection",0.19 log2 fold change
same,STAT2 expression ratio vs NoLenti (.fc),"Human myoblasts; gene STAT2 NM_005419.2, vs uninfected, 24 hours after infection",2.11 log2 fold change
same,TLR3 expression ratio vs GFP (.fc),"Human myoblasts; gene TLR3 NM_003265.2, vs lenti-GFP, 24 hours after infection",1.67 log2 fold change
same,TLR3 expression ratio vs NoLenti (.fc),"Human myoblasts; gene TLR3 NM_003265.2, vs uninfected, 24 hours after infection",2.56 log2 fold change
same,TNFAIP2 expression ratio vs GFP (.fc),"Human myoblasts; gene TNFAIP2 NM_006291.2, vs lenti-GFP, 24 hours after infection",0.06 log2 fold change
same,TNFAIP2 expression ratio vs NoLenti (.fc),"Human myoblasts; gene TNFAIP2 NM_006291.2, vs uninfected, 24 hours after infection",1.06 log2 fold change
same,TNFAIP3 expression ratio vs GFP (.fc),"Human myoblasts; gene TNFAIP3 NM_006290.2, vs lenti-GFP, 24 hours after infection",0.28 log2 fold change
same,TNFAIP3 expression ratio vs NoLenti (.fc),"Human myoblasts; gene TNFAIP3 NM_006290.2, vs uninfected, 24 hours after infection",2.50 log2 fold change
same,TNFAIP6 expression ratio vs GFP (.fc),"Human myoblasts; gene TNFAIP6 NM_007115.2, vs lenti-GFP, 24 hours after infection",1.31 log2 fold change
same,TNFAIP6 expression ratio vs NoLenti (.fc),"Human myoblasts; gene TNFAIP6 NM_007115.2, vs uninfected, 24 hours after infection",5.10 log2 fold change
same,TNFRSF6B expression ratio vs GFP (.fc),"Human myoblasts; gene TNFRSF6B NM_032945.2, vs lenti-GFP, 24 hours after infection",0.01 log2 fold change
same,TNFRSF6B expression ratio vs NoLenti (.fc),"Human myoblasts; gene TNFRSF6B NM_032945.2, vs uninfected, 24 hours after infection",1.32 log2 fold change
same,TNFRSF10A expression ratio vs GFP (.fc),"Human myoblasts; gene TNFRSF10A NM_003844.2, vs lenti-GFP, 24 hours after infection",0.84 log2 fold change
same,TNFRSF10A expression ratio vs NoLenti (.fc),"Human myoblasts; gene TNFRSF10A NM_003844.2, vs uninfected, 24 hours after infection",1.81 log2 fold change
same,TNFRSF14 expression ratio vs GFP (.fc),"Human myoblasts; gene TNFRSF14 NM_003820.2, vs lenti-GFP, 24 hours after infection",0.57 log2 fold change
same,TNFRSF14 expression ratio vs NoLenti (.fc),"Human myoblasts; gene TNFRSF14 NM_003820.2, vs uninfected, 24 hours after infection",1.78 log2 fold change
same,TNFSF10 expression ratio vs GFP (.fc),"Human myoblasts; gene TNFSF10 NM_003810.2, vs lenti-GFP, 24 hours after infection",2.97 log2 fold change
same,TNFSF10 expression ratio vs NoLenti (.fc),"Human myoblasts; gene TNFSF10 NM_003810.2, vs uninfected, 24 hours after infection",3.88 log2 fold change
same,TNFSF13B expression ratio vs GFP (.fc),"Human myoblasts; gene TNFSF13B NM_006573.3, vs lenti-GFP, 24 hours after infection",2.19 log2 fold change
same,TNFSF13B expression ratio vs NoLenti (.fc),"Human myoblasts; gene TNFSF13B NM_006573.3, vs uninfected, 24 hours after infection",3.78 log2 fold change
same,number of the 341 lenti-GFP induced genes induced 2-fold or more,"Human myoblasts; vs uninfected cells, 24 hours",315 genes
same,toxicity of forced over-expression,[1],not toxic
same,binding to DUX4 core motifs,[2],specifically binds the same core binding site as DUX4-fl
same,luciferase expression from pGL3-promoter reporter with 31 bp DUX4 binding site,"[3]; TRIM48 or ZSCAN4 site, co-transfection in RD cells",did not activate expression
same,effect on DUX4-fl reporter activation when co-expressed,[3]; ZSCAN4 1.9 kb reporter,interfered with the activity of DUX4-fl
